For assay [1], the target named is full-length human ARC (ARC_(1-396)) (human) (UniProt Q7LC44). Kind of assay: SEC-MALS. In general terms: In gel filtration, larger molecules generally elute earlier.
Another assay addresses T1, ARC_(131-396) (human, UniProt Q7LC44 131-396).
T1 sequence (looked up): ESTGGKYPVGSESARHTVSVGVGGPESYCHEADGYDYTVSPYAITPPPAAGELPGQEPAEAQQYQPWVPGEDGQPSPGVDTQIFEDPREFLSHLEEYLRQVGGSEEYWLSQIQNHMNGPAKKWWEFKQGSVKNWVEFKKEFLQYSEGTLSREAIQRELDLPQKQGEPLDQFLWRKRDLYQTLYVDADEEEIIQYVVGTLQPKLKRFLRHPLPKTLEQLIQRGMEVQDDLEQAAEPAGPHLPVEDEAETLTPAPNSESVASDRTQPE
Kind of assay: SAXS.

The target in another assay is T2, ARC_(170-396) (human, UniProt Q7LC44 170-396).
T2 sequence (looked up): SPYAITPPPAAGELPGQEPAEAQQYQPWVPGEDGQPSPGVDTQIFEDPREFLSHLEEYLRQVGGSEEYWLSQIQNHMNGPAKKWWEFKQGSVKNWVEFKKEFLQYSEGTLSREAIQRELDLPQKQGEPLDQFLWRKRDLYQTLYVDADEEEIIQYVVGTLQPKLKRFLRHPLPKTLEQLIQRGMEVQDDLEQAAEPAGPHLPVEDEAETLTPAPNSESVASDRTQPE
Kind of assay: SAXS.

Another assay has as its target T3, ARC_(206-396) (human, UniProt Q7LC44 206-396).
T3 sequence (looked up): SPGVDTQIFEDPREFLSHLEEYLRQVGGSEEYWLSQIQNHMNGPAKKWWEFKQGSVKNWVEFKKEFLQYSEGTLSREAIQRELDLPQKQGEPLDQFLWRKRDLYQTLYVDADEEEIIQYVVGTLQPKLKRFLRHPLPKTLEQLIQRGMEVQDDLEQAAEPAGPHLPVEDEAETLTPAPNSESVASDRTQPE
In words: SAXS.

The target of a further assay is T4, ARC_(206-361) (human, UniProt Q7LC44 206-361).
T4 sequence (looked up): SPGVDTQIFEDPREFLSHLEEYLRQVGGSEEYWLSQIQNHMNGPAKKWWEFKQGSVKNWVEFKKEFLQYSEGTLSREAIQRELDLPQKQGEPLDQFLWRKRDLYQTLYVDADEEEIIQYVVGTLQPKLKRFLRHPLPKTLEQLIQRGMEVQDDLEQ
Kind of assay: SAXS.

Assay [2] has as its target T5, ARC_(207-277) (human, UniProt Q7LC44 207-277).
T5 sequence (looked up): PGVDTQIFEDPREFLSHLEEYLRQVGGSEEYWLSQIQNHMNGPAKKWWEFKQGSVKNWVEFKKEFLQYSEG
Kind of assay: SAXS.

Assay [3] concerns the target T5, ARC_(207-277). Kind of assay: synchrotron radiation circular dichroism.

For the molecule “full-length human ARC (ARC_(1-396)) (from UniProt Q7LC44 1-396) (natural protein)”, the stoichiometry N in assay [1] was 2.

B1: GKAP peptide (TSPKFRSR) (peptide)
peptide: Ac-TSPKFRSR-NH2
As for B1, the binding result with ARC_(131-396), with ARC_(170-396), with ARC_(206-396), in the assay with ARC_(206-361) and in the assay with ARC_(207-277) [2] was “binds” each time.

B2: Stargazin peptide (RIPSYRYR) (peptide)
peptide: Ac-RIPSYRYR-NH2
For B2, the binding result in the assay with ARC_(207-277) [3], with ARC_(131-396), with ARC_(170-396), in the assay with ARC_(206-396) and with ARC_(206-361) was “binds” each time.

B3: WAVE1 peptide (RTPVFVSP) (peptide)
peptide: Ac-RTPVFVSP-NH2
On to B3, for which the binding result in the assay with ARC_(131-396), with ARC_(170-396), with ARC_(206-396), with ARC_(206-361) and with ARC_(207-277) [2] was “binds” in each case.

The stoichiometry N is the number of molecules, sites or subunits per partner or assembly.

(Values after article doi:10.1101/332015 (bioRxiv, 2018).)
